From paper PMC8699212, “Mechanism of Zn^2+ and Ca^2+ Binding to Human S100A1” (Biomolecules, 2021)

Target: the molecule itself
Test: dynamic light scattering (DLS); 50 µM S100A1, 37 °C, without divalent metal ions or with 0.5-10 mM Ca2+ or Zn2+; hydrodynamic diameter (volume distribution); monomer to dimer

B1: S100A1 (natural protein, human)
chain: GSELETAMETLINVFHAHSGKEGDKYKLSKKELKELLQTELSGFLDAQKDVDAVDKVMKELDENGDGEVDFQEYVVLVAALTVACNNFFWENS
modifications: N-formylmethionine (fMet) at the N-terminus
notes: theoretical mass 10,545.5 Da, measured 10,571.2 ± 1.4 Da (fMet at the N-terminus); also called recombinant S100A1; human S100A1; source: residual Ca2+ removed
With B1 the “stoichiometry N” value was 2.
